Source: patent US20260043020A1, “BINDING MEMBERS WITH ALTERED DIVERSITY SCAFFOLD DOMAINS” (priority 2016, published 2026)

T1: trypsin (Bos taurus, UniProt P00760)
T1 construct: gene PRSS1
T1 sequence (P00760 24-246): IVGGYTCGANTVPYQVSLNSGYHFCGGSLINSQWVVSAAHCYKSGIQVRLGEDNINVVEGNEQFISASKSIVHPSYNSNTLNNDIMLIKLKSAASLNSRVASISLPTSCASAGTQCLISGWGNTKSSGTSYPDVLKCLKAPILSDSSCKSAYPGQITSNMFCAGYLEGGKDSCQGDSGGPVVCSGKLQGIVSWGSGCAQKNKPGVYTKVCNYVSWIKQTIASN

B1: G11: KnotBody with EET 5-3 framed EETI-II in VL CDR2; SEQ ID NO: 317 (protein)
chain: QSVLTQPPSVSEAPRQRVTITCSGSSSNIGNNAVNWYQQLPGKAPKLLIYAAGGCGPNGFCGSGSDGGVCPRILMRCKQDSDCLAGCGQSSGVSDRFSGSKSGTSATLDITGLQTGDEADYYCGTWDNSLSVGVFGGGTKVTVLGQP
modifications: G11 (27650)
B2: KB_B11: KnotBody, EETI-II in VL CDR1; VL SEQ ID NO: 86 (antibody, V domains shown)
VL: QSVLTQPPSVSEAPRQRVTITCGSRPCPRILMRCKQDSDCLAGCVCGPNGFCGSHNWYQQLPGSSPTTVIYEDNQRPSGVPDRFSGSIDRSSNSASLTISGLKTEDEADYYCQSYDSSNHRVVFGGGTKLTVLGQP
modifications: heavy chain missing; CDR1_F_02
B3: KB_C10: KnotBody, EETI-II in VL CDR2; VL SEQ ID NO: 123 (antibody, V domains shown)
VL: QSVLTQPPSVSEAPRQRVTITCSGSSSNIGNNAVNWYQQLPGKAPKLLIYAAGPCPRILMRCKQDSDCLAGCVCGPNGFCGADSGVSDRFSGSKSGTSASLAITGLQAEDEGDYYCAAWDDSLNGLVFGGGTKVTVLGQP
modifications: EETI-II in VL CDR2; CDR2_E_05
B4: F01: KnotBody with EET 5-3 framed EETI-II in kappa VL CDR2; SEQ ID NO: 312 (protein)
chain: DIQMTQSPSSLSASVGDRVTITCRASQSISSYLNWYQQKPGKAPKLLIDAAGECGPNGFCGSGSDGGVCPRINMRCKQDSDCLAGCGRDSGVPSRFSGSGSGTDFTLTISSLQPEDFATYYCQQSYSTPWTFGQGTKVEIKRT
modifications: F01 (101798)
B5: KB_C09: KnotBody, EETI-II in VL CDR2; VL SEQ ID NO: 120 (antibody, V domains shown)
VL: QSVLTQPPSVSEAPRQRVTITCSGSSSNIGNNAVNWYQQLPGKAPKLLIYAAGRCPRILMRCKQDSDCLAGCVCGPNGFCGGGSGVPDRFSGSIDSSSNSASLTISGLRAEDEADYYCQSYDSSNHWVFGGGTKLTVLGQP
modifications: EETI-II in VL CDR2; CDR2_C_08
B6: F07: KnotBody with EET 5-3 framed EETI-II in VL CDR2; SEQ ID NO: 314 (protein)
chain: QSVLTQPPSVSEAPRQRVTITCSGSSSNIGNNAVNWYQQLPGKAPKLLIYAAGGCGPNGFCGSGSDGGVCPRILMRCKQDSDCLAGCGGQSGVPDRFSGSKSGTSASLAISRLQSEDEADYYCAAWDDSLNAYVFGTGTKVTVLGQP
modifications: F07 (72824)

How the values were obtained:
[1] = biological target: T1, trypsin; experiment: Monoclonal phage ELISA on trypsin, EET 5-3 framed KnotBodies; type: binding; conditions: value in brackets after the clone name
Text: Following selection on trypsin, as described in example 3, positive clones were identified by monoclonal phage ELISA and their sequences determined. Examples of positive clones in CDR1 or CDR 2 of kappa and lambda light chains are shown in Table 29 with the linker sequences shown in lower case and the knottin donor in a 5-3 frame shown in italics. Also shown is the value of ELISA signal attained from monoclonal phage ELISA. The specificity of interaction was further confirmed by mutating the pair of Proline-Arginine residues involved in interaction with trypsin to alanine-alanine which diminished binding (as described in example 3).

[2] = biological target: T1, trypsin; experiment: Monoclonal phage TRF binding assay on trypsin (KnotBody clones and GlyAla mutants); conditions: for % reduction in binding signal: GlyAla mutant (EETI-II Pro3 to Gly, Arg4 to Ala) of the clone versus the clone, monoclonal phage, trypsin on streptavidin plates; for Tryspin binding signal (FU): monoclonal phage supernatant of round-2 clones, biotinylated trypsin on neutravidin plates
Method: Phage display technology facilitates isolation of binders to any given target from large combinatorial repertoires based on proteins and peptides that can be presented on the surface of filamentous phage^105. In order to isolate functional knottin-antibody fusions from the KnotBody libraries multiple rounds of phage display selections on trypsin (cognate antigen for the EETI-II donor) were carried out. Phage particles were prepared by rescuing KnotBody libraries using trypsin cleavable helper phage^102,106Two rounds of phage display selections were performed on 10 μg/ml biotinylated trypsin immobilised on Streptavidin (for Round-1) or Neutravidin (for round-2) coated Maxisorp™ immunotubes (Thermo Scientific, Cat No. 444202). In both rounds of selection, phage libraries were pre-incubated with streptavidin coated paramagnetic beads (Thermo Fisher Scientific, Cat. No. 11205D). These beads were removed prior to the addition the phage to the antigen tubes to limit the streptavidin binders entering the selection. Polyclonal phage preparations from round-2 selection outputs were analysed for trypsin binding using a time resolved fluorescence (TRF) binding assay. In this assay, polyclonal phage binding to biotinylated trypsin immobilised on neutravidin (Thermo Fisher Scientific, Cat. No 31000) coated Maxisorp™ plates (Thermo Scientific, Cat. No. 437111) was detected using a mouse anti-M13 antibody (GE Healthcare, Cat. No. 27-9420-01) followed by europium conjugated anti-mouse antibody (Perkin Elmer, Cat. No. AD0124).
In order to identify monoclonal KnotBodies with desired binding characteristics, 94 individual clones derived from 2 rounds of selection using EETI-II CDR1 or CDR2 libraries were picked into 96 well culture plates and phage were prepared from each clone. Methods for screening by monoclonal phage ELISA are known in the art^107. […] Clones with >3× binding signal above background were picked as positive clones and sequenced to identify unique clones. 14 and 42 unique binders were identified from EETI-II CDR1 and EETI-II CDR2 libraries respectively (Table 1). 18 binders from the EETI-II CDR2 library and 3 binders from the EETI-II-CDR1 library were chosen for further characterisation based on their VL and linker sequence diversity. These binders were assigned new clone identification numbers (Table 2).
The trypsin binding capability of EETI-II is attributed to proline (Pro3) and arginine (Arg4) residues present in its loop1 (GCPRILMRC; SEQ ID NO: 68). […] Monoclonal phage was prepared from the 21 selected clones and their mutant equivalents. […] Replacement of the trypsin-binding residues of EETI-II abolished the ability of all KnotBody clones to bind to trypsin (Table 3). In order to confirm that the loss of trypsin binding was not due to reduced expression or display of pIII fusion phage was prepared from 11 (randomly chosen) KnotBodies and their GlyAla variants were analysed on a western blot using an antibody which recognises the product of gene 3 (pIII) using an anti-pIII antibody (MoBiTec GmbH) (FIG. 6).

[3] = biological target: T1, trypsin; experiment: KnotBody Fab TRF binding assay on trypsin; conditions: Fab format

Molecule	ELISA signal from monoclonal phage ELISA [1]	% reduction in binding signal [2] [%]	Tryspin binding signal (FU) [2] [FU]	TRF signal for 0.6 ug/mL Fab [3]	TRF signal for 2.4 ug/mL Fab [3]	TRF signal for 10 ug/mL Fab [3]
B1	G11 (27650)					
B2		100	10286			
B3		100	118631	41709	146488	238066
B4	F01 (101798)					
B5		100	89424	46788	204878	288988
B6	F07(72824)					
